The numbers were not newly measured in PMC9842050, which cites them from elsewhere.

By Kd is commonly meant the constant that tells how readily two partners part at equilibrium.

The target in data set [1] is CXCR4 (Homo sapiens) (UniProt P61073).
The target is the same in data set [2]. This is another data set of the same source.
Data set [3] deals with GLP-1R (Homo sapiens) (UniProt P43220). As to the kind of experiment: radioligand competition binding. Background: In a radioligand displacement assay an active substance lowers the binding of a labelled ligand.
For data set [4] the target is unchanged. As to the kind of experiment: radioligand competition binding. The source holds these as a separate data set.

Read-outs that look alike come from different tables or passages of the source.

CXCR4 (Homo sapiens), sequence (P61073 whole entry): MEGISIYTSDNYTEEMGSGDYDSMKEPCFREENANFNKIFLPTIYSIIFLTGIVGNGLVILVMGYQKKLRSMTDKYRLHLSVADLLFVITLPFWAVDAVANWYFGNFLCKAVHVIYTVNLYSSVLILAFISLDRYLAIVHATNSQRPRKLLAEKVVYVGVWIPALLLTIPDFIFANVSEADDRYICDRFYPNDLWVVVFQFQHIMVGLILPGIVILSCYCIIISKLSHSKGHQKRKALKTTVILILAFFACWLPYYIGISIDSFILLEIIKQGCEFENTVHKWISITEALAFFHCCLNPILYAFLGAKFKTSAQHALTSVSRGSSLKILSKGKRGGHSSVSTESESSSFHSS
SDF-1α, sequence (P48061 24-88): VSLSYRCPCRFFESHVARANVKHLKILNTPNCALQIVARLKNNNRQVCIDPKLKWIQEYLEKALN
exendin-4, sequence (P26349 48-86): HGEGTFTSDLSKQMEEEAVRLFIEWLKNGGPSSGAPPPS
GLP-1R (Homo sapiens), sequence (P43220 24-463): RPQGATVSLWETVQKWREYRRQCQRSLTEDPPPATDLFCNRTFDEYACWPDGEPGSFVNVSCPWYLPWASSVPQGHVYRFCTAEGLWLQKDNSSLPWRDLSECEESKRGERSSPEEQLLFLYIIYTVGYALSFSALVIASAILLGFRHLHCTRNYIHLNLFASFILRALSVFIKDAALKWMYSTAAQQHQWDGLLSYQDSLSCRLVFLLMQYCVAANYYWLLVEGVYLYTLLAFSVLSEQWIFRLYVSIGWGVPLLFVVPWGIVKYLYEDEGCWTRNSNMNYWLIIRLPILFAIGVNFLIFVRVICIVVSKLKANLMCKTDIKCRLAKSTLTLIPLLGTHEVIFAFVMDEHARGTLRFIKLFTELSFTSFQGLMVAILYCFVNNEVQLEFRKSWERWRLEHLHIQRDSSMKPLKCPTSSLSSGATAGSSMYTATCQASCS

As to SDF-1α (from UniProt P48061), the values for the Kd with CXCR4 (Homo sapiens) [1] and with CXCR4 (Homo sapiens) [2] were 1.4 nM and 8.4 nM, respectively.

In the case of exendin-4 (from UniProt P26349), the Kd with GLP-1R (Homo sapiens) [3] is 37.8 nM; with GLP-1R (Homo sapiens) [4] it was 54.3 nM.
